Measured values reported in publication PMC2367712.
Where two headings read alike, the source gives them in different places.

Assays:
Assay in all cases: EMSA
[1] = molecular target: T1, Lsr2 (Mycobacterium tuberculosis, UniProt P9WIP7 1-112)
[2] = molecular target: T1, Lsr2; remark: listed apart in the source
[3] = molecular target: T1, Lsr2; remark: listed apart in the source

Binder	binding result [1]	also measured
lmo 26 bp fragment 1 (46% AT) (dsDNA) DNA 1: TGCTGGTCAATTAGGCACTGCGTGAC DNA 2: GTCACGCAGTGCCTAATTGACCAGCA	binds	–
C42 (dsDNA) DNA 1: AAAAATCTCTAAAAAATCTCTAAAAATCTCTAAAAAATCTCT DNA 2: AGAGATTTTTTAGAGATTTTTAGAGATTTTTTAGAGATTTTT	–	binding result [2]: binds
lmo 26 bp fragment 3 (65% AT) (dsDNA) DNA 1: ATCCATCCGTTATTTACGTCAATTTA DNA 2: TAAATTGACGTAAATAACGGATGGAT	binds	–
lmo 26 bp fragment 2 (54% AT) (dsDNA) DNA 1: AATTTATCGAGTCGCACAACCGGATC DNA 2: GATCCGGTTGTGCGACTCGATAAATT	binds	–
lmo promoter 104 bp (dsDNA) DNA 1: TGCTGGTCAATTAGGCACTGCGTGACAATTTATCGAGTCGCACAACCGGATCATCCATCCGTTATTTACGTCAATTTAAACGGATGATCTATCCGCTGGCTCCC DNA 2: GGGAGCCAGCGGATAGATCATCCGTTTAAATTGACGTAAATAACGGATGGATGATCCGGTTGTGCGACTCGATAAATTGTCACGCAGTGCCTAATTGACCAGCA	–	binding result [3]: binds
